Reference: IntAct's records for PubMed 19765570

B1: Guanine nucleotide-binding protein alpha-4 subunit (Dictyostelium discoideum (Slime mold)), P34042 (parent)
chain: MRFKCFGSEETEQSSKIDKSIETDRRKLRKDVKLLLLGPGESGKSTIFKQMKIIQEDGGYSVEELLEYRAFVYSNCISQMEALLTASAKLNIELEVENKQRAANVLRRTIGNEPWLLLAADIKHLWEDKGIKETYAQKDKHFQLNDSAAYFFDNIDRYMREDFVPNEQDVLRCRVRTTGIQESEFTFDKIRLKIVDVGGQRSQRRKWIHCFDCVTAVIFVAAMSDYDQVLREDESVNRTRESLALFKEIVNCDYFKETPIVLFLNKKDLFKEKLKRVPLQSCFSDYTGPNKYKDAAMFIQSQYLAQGPSPRTIYTHATCAVDTENIKFVFRAVRQTILSQALEHF
partner: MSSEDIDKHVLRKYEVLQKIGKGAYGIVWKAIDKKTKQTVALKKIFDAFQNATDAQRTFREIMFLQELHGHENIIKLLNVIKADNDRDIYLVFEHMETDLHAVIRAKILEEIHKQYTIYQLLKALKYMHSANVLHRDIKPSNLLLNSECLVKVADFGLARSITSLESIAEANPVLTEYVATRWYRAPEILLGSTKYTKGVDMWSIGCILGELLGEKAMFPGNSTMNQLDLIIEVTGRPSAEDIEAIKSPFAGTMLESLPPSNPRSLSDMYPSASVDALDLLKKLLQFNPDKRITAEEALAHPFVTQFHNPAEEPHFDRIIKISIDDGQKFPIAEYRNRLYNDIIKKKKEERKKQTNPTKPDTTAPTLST

Variants of: B1
Settings: with erk2_dicdi erkB

Variant | effect of a mutation on the interaction
MRFKCFGSEETEQSSKIDKSIETDRRKLRKDVKLLLLGPGESGKSTIFKQMKIIQEDGGYSVEELLEYRAFVYSNCISQMEALLTASAKLNIELEVENKQRAANVLEETIGNEPWLLLAADIKHLWEDKGIKETYAQKDKHFQLNDSAAYFFDNIDRYMREDFVPNEQDVLRCRVRTTGIQESEFTFDKIRLKIVDVGGQRSQRRKWIHCFDCVTAVIFVAAMSDYDQVLREDESVNRTRESLALFKEIVNCDYFKETPIVLFLNKKDLFKEKLKRVPLQSCFSDYTGPNKYKDAAMFIQSQYLAQGPSPRTIYTHATCAVDTENIKFVFRAVRQTILSQALEHF [R107E;R108E] | decreasing interaction
MRFKCFGSEETEQSSKIDKSIETDRRKLRKDVKLLLLGPGESGKSTIFKQMKIIQEDGGYSVEELLEYRAFVYSNCISQMEALLTASAKLNIELEVENKQRAANVLRRTIGNEPWLLLAADIKHLWEDKGIKETYAQKDKHFQLNDSAAYFFDNIDRYMREDFVPNEQDVLRCRVRTTGIQESEFTFDKIRLKIVDVGGLRSQRRKWIHCFDCVTAVIFVAAMSDYDQVLREDESVNRTRESLALFKEIVNCDYFKETPIVLFLNKKDLFKEKLKRVPLQSCFSDYTGPNKYKDAAMFIQSQYLAQGPSPRTIYTHATCAVDTENIKFVFRAVRQTILSQALEHF [Q200L] | decreasing interaction
